The assay concerns the target Fc6 (recombinant human IgG1 Fc protein) (human). Briefly: SEC; analytical SEC of the Protein A purified reaction products on TSKgel SuperSW3000; native, non-reducing; 50 mM sodium phosphate pH 7.4, 300 mM NaCl, 25 °C. On the technique in general: Size exclusion chromatography separates by hydrodynamic size, large species first.

For the substance “Fc6 (recombinant human IgG1 Fc protein) (domain or fragment)”, the stoichiometry N was 2.

A word on the stoichiometry N: it is a count of units in the complex or per binding partner.
